1 molecule from patent US20120244165A1 (published 2012) can be followed below.

No end group written: not given here.

The target in test [1] is T1, peptide 12-20 with alanine at aa 20 (A20) (also: biotinylated, position not given here).
T1 construct: Second library; the entry already carries the alanine
T1 peptide: VHHQKLVFA
Nature of the test: ELISA on biotinylated peptides on streptavidin plates. The protocol:
(§1) Epitope mapping of the monoclonal antibody mACI-01-Ab7 C2 was performed by ELISA using three different peptide libraries. One library comprises a total of 33 biotinylated peptides covering the complete amino acid (aa) sequence of Aβ1-42 (produced by Mimotopes and purchased from ANAWA Trading SA), the second library contains biotinylated peptides using peptide 12 (aa12-20 of Aβ) from the first peptide library and substituting each amino acid in the sequence by an alanine (see table 41 below), and the third library contains biotinylated peptides 13, 14, or 15 (aa 13-21, 14-22 or 15-23 of Aβ) and substituting in each case the last amino acids to an alanine or to a glycine for aa 21 which is already an alanine (see table 5 below). A biotinylated complete Aβ1-42 peptide was used as positive control (Bachem). Epitope mapping was done according to the manufacturer's (Mimotopes) instructions. Briefly, Streptavidin coated plates (NUNC) were blocked with 0.1% BSA in PBS overnight at 4° C. After washing with PBS-0.05% Tween 20, plates were coated for 1 hour at RT with the different peptides from the library, diluted in 0.1% BSA, 0.1% Sodium Azide in PBS to a final concentration of 10 μM. After washing, plates were incubated for 1 hour at RT with the mACI-01-Ab7 C2 antibody or an isotype control mouse IgG2b antibody, diluted to 10 μg/ml in 2% BSA, 0.1% Sodium Azide in PBS. Plates were washed again and incubated with alkaline phosphatase conjugated goat anti mouse IgG for 1 h at RT. After final washing, plates were incubated with phosphatase substrate (pNPP) and read at 405 nm using an ELISA plate reader.
(§2) It was shown that the monoclonal antibody mACI-01-Ab7 C2 bound specifically to peptides 12, 13, 14 and 15 of the first peptide library. […] A second library with alanine substitutions was used to determine the critical aa for binding to peptide 12-20 ([…]) (SEQ ID NO: 29).

Test [2] concerns the target T2, peptide 12-20 with alanine at aa 17 (A17) (also: biotinylated (position not given here)).
T2 construct: Second library; the entry already carries the alanine
T2 peptide: VHHQKAVFF
The description is as above. The protocol:
as §1, §2

In test [3] the target is T3, peptide 12-20 with alanine at aa 19 (A19) (also: biotinylated, position not given here).
T3 construct: Second library; the entry already carries the alanine
T3 peptide: VHHQKLVAF
The test is described as above. The protocol:
as §1, §2

Test [4] has as its target T4, peptide 12-20 with alanine at aa 16 (A16) (also: biotinylated (position not given here)).
T4 construct: Second library; the entry already carries the alanine
T4 peptide: VHHQALVFF
The description is as above. As for the experimental part:
as §1, §2

In a further test the target is T5, Aβ1-42 oligomers (UniProt P05067 672-713).
T5 construct: domain: Aβ1-42; Soluble oligomeric preparation (SDS-induced); number of copies not defined; also called amyloid oligomers; polymeric soluble amyloid β (Aβ) protein
T5 sequence (P05067 672-713 limits assumed): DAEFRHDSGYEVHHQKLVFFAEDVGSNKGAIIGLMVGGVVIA
The test is described as follows: binding affinity ELISA on plates coated with amyloid, alkaline phosphatase anti-mouse IgG detection. The protocol:
(§3) In order to evaluate the specificity of mACI-01-Ab7 C2 to different stages of polymerized amyloid protein, monomeric and polymeric soluble amyloid, particularly, amyloid β (Aβ) protein, and fibrillic amyloid, an ELISA coated with these different stages of polymeric beta-amyloid was performed. Monomers were prepared according to a modified method published by⁷, polymeric soluble amyloid, particularly, amyloid β (Aβ) according to⁸, whereas fibers were performed by incubation of amyloid (Bachem, Switzerland) with a final concentration of 1 μg/μl in Tris/HC1 pH 7.4 at 37° C. for 5 days followed by a centrifugation step (10,000 rpm for 5 minutes). Then amyloid polymers were coated on an ELISA plates with a final concentration of […] and binding affinity ELISA by using an anti-mouse IgG monoclonal antibody (Jackson ImmunoResearch Laboratories, Inc.) labelled with alkaline phosphate was performed.

Another test addresses T6, Aβ1-42 monomers (UniProt P05067 672-713).
T6 construct: domain: Aβ1-42; Unlabelled monomeric preparation (HFIP film, DMSO, PBS); also called Amyloid monomers; Aβ1-42 monomeric peptide
The description is as above. As for the experimental part: as §3

The target in another test is T7, Aβ1-42 fibers (UniProt P05067 672-713).
T7 construct: domain: Aβ1-42; Aggregated, fibrillar state of Aβ1-42 (incubated for days at 37 °C); number of peptide copies not defined; also called Amyloid 1-42 fibrils; fibrillar Aβ1-42
T7 sequence (P05067 672-713 limits assumed): as above
The description is as above. As for the experimental part:
as §3

T6 sequence (P05067 672-713 limits assumed): as above

B1: mACI-01-Ab7 C2 (antibody, mouse IgG2b, kappa, V domains shown)
VH: EVQLVESGGGLVQPGGSLKLSCAASGFTFSSYGMSWVRQTPDKRLELVASINSNGGSTYYPDSVKGRFTISRDNAKNTLYLQMSSLKSEDTAMYYCASGDYWGQGSTLTVSS
VL: DVVMTQTPLSLPVSLGDQASISCRSSQSLVYSNGDTYLHWYLQKPGQSPKLLIYKVSNRFSGVPDRFSGSGSGTDFTLKISRVEAEDLGVYFCSQSTHVPWTFGGGTKLEIKR
notes: also called mC2; Mouse C2
For the molecule B1, the binding result in test [1], in test [2], in test [3] and in test [4] was “no binding (tested: antibody at 10 µg/ml)” each time. The IC50 with Aβ1-42 oligomers amounted to 2.53 nM; in the test with Aβ1-42 monomers, 8.3 nM; with Aβ1-42 fibers, 5.27 nM.
